We go through 4 molecules from publication PMC5980108, “ARE-mediated decay controls gene expression and cellular metabolism upon oxygen variations”.

As a reminder, the Kd is the free concentration of one partner at which half of the binding sites on the other are occupied at equilibrium, for simple one-to-one binding.

In this data set the target is T1, dTIS11-6His (UniProt P47980 1-436).
T1 sequence: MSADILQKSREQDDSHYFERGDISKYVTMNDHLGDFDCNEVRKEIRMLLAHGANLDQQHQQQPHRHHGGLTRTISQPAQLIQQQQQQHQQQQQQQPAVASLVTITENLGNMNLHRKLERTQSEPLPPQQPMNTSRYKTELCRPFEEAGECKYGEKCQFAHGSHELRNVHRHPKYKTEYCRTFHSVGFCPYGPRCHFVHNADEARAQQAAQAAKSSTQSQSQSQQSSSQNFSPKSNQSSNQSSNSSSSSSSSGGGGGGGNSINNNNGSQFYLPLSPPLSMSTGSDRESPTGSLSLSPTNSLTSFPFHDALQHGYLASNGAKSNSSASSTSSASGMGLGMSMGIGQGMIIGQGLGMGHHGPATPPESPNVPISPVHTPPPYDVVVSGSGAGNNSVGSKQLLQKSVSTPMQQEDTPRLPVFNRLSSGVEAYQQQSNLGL
The experiment in a line: ITC; 5 uM ZnCl2; ITC: 20 mM MES pH 6.5, 300 mM NaCl, 5 uM ZnCl2, 0.5 mM DTT, 10 C; EMSA: 20 mM Tris pH 7.8, 3 mM MgCl2, 40 mM KCl, 2 mM DTT, 5% glycerol, gel at 4 C. The conditions noted are these: protein: recombinant; tags: C-terminal 6His.

For the molecule CGAUUUAUUUAUUUAGA (ssRNA) [TNF ARE], the Kd was found to be 895 nM.
With UGUUUAUUUUUAGUCCACCUCUCAAUUUAUUUAUUAUUUUUAUGA (ssRNA) [ImpL3 ARE (ITC)], the Kd is 2400 nM.
In the case of GAUUAUUUAUAAUUAUUUAUUUAAAGAUCUAUUUAUUC (ssRNA) [CecA1 ARE], the dissociation constant (Kd) was determined as 580 nM.
AUUCUAUUGUUUCUUCUUAUAUAUUGUUAUUCUUCACAUAAUGUU (ssRNA) [Scrambled ImpL3 ARE (ITC)]: the binding result was “no binding”.
